The values below come from patent US20080188000.

For series [1], the system named is ZFN 9666 (GR exon 3 four-finger ZFP-FokI) (synthetic). Put plainly: cell_activity. The following applies: paired with 9674; Ad5/F35 moi 100, CD8+ T-cells after dexamethasone selection; also Cel I cleavage in K562 (FIG. 3A).
Series [2] has as its system ZFN 9674 (GR exon 3 four-finger ZFP-FokI) (synthetic). Put plainly: cell_activity. The settings on record: paired with 9666; Ad5/F35 moi 100, CD8+ T-cells after dexamethasone selection; also Cel I cleavage in K562 (FIG. 3A).

The sequence “CAACAGGACCAC (double strand) [GR exon 3 sense target (nt 1370-1381)]” gave an activity (% GR alleles mutated) in series [1] of 70.

“GTTGAGGAGCTG (double strand) [GR exon 3 antisense target (nt 1353-1364)]” registered an activity (% GR alleles mutated) in series [2] of 70.
